# According to PMC7683652 (Nature Communications, 2020):
# B1: TDP-43 N-terminal region (aa 1-100) (domain or fragment, UniProt Q13148 1-100, looked up)
# chain: MSEYIRVTEDENDEPIEIPSEDDGTVLLSTVTAQFPGACGLRYRNPVSQCMRGVRLVEGILHAPDAGWGNLVYVVNYPKDNKRKMDETDASSAVKVKRAV
# notes: the methods say aa; 1-101; calculated 12.5 kDa; C-terminal limit is printed as 100 (results, legend) and as 101 (methods); also called N-terminal TDP-43; source: E. coli M15 (pQE30), purified (Ni-NTA)
# Target: the molecule itself
# Assay: SEC; size exclusion chromatography of the truncated TDP-43 proteins against molecular weight standards (Supplementary Fig. 3a); conditions not shown
protein,measurement,value
B1,stoichiometry N,2
